How the values were obtained:
Assay in all cases: cell_activity
[1] = tested on: ssMYF6 1.2 TALEN right (synthetic (Xanthomonas TALE-FokI)?); conditions: TALEN pair with P5, pig fibroblasts; site printed on top strand
[2] = tested on: ssMYOD 1.2 TALEN right (synthetic (Xanthomonas TALE-FokI)?); conditions: TALEN pair with P1, pig fibroblasts
[3] = tested on: ssMYOD 1.2 TALEN left (synthetic (Xanthomonas TALE-FokI)?); conditions: TALEN pair with P2, triplex transfection with HDR oligo, pig fibroblasts, HindIII RFLP
[4] = tested on: ssMYF5 1.1 TALEN left (synthetic (Xanthomonas TALE-FokI)?); conditions: TALEN pair with P4, triplex transfection with HDR oligo, pig fibroblasts, HindIII RFLP
[5] = tested on: ssMYF6 1.2 TALEN left (synthetic (Xanthomonas TALE-FokI)?); conditions: TALEN pair with P6, triplex transfection with HDR oligo, pig fibroblasts, HindIII RFLP
[6] = tested on: ssMYF5 1.1 TALEN right (synthetic (Xanthomonas TALE-FokI)?); conditions: TALEN pair with P3, pig fibroblasts; site printed on top strand

For “GACAGCAGTGGAGAGGA (double strand) [ssMYF6 1.2 right half-site]”, the activity (% HDR alleles) [1] was 36.

With “AGGCTGCCCAAGGTGG (double strand) [ssMYOD 1.2 right half-site]” the activity (% HDR alleles) [2] was 14.

“CAAGAGGTGCACCAC (double strand) [ssMYOD 1.2 left half-site]” gave an activity (% HDR alleles) [3] of 14.

“GCCTCATGTGGGCCTG (double strand) [ssMYF5 1.1 left half-site]” showed an activity (% HDR alleles) [4] of 31.

In the case of “GCCAGGACCAAATGCC (double strand) [ssMYF6 1.2 left half-site]”, the activity (% HDR alleles) [5] is reported as 36.

With “AAATCCACCACCATGG (double strand) [ssMYF5 1.1 right half-site]” the activity (% HDR alleles) [6] was 31.

From patent US20180177166
